The source of these data is patent publication US8877206B2, “Stimulation of an immune response by cationic lipids” (PDS Biotechnology Corporation, priority 2007, dated 2014).

Ends that are not written are not given here.

For one data set, the system named is TC-1 tumor. Nature of the data set: TC-1 HPV-positive tumor growth in treated mice. It is filed as in vivo, C57BL/6 mice. To be noted: formulated in the DOTAP/antigen complex; FIG. 11.
Another data set concerns CD8+ T cells. Nature of the data set: IFN-γ producing CD8+ T cells in spleen after immunization. The format is in vivo, mice. To be noted: formulated in DOTAP liposomes; 5 nmol peptide; FIG. 12.
Data set [1] is described as follows: Peptide entrapment efficiency in DOTAP liposomes (LavaPep). To be noted: molar ratio lipopeptide: DOTAP = 1:40, mean±SD (n=3). The format is physicochemical. The protocol: Cationic lipid/antigen complexes were prepared as described above. Peptide encapsulation efficiency was determined by the percentage of the liposome-bound peptide using LavaPep™ peptide quantification kit (commercially available from Fluorotechnics of Sydney, Australia). Since unincorporated lipopeptide aggregated and could not pass the exclusion filter, the incorporated lipopeptide was measured as the amount associated with the extruded liposomes in the presence of 1% SDS and reported as the mean±SD (n=3). For water-soluble peptide such as native E7 and KSS-E7, the unbound peptide was separated from the complex by a Microcon® centrifugal filtration device (commercially available from Millipore of Bedford, Mass.). The concentration of the unbound peptide was measured using LavaPep™ according to the manufacturer's instruction.

Data set [2] addresses T1, H-2D^b molecules on RMA-S cells (Mus musculus, UniProt P01899).
T1 construct: it caused a four-fold up-regulation of H-2D^b molecules on RMA-S cells compared to the control; endogenous in cells; host or cells: RMA-S mouse lymphoma cells
T1 sequence (P01899 25-362): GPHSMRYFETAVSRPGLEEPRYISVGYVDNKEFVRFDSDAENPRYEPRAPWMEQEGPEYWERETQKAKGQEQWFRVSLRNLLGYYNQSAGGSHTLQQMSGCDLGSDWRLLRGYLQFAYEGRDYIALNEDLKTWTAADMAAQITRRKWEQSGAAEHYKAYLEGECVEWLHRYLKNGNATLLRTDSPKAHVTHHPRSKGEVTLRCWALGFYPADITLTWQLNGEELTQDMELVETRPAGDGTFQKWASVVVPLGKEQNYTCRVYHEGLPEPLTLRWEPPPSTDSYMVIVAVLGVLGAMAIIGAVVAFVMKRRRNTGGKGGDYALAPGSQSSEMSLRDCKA
T1 sequence (P01887 21-119 partner): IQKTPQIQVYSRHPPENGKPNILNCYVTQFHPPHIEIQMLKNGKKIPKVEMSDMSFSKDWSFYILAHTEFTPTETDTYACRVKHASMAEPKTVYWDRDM
Nature of the data set: MHC class I binding on RMA-S cells, H-2D^b. It is filed as cell-based. To be noted: peptide 10 μM, overnight 27° C. then 2 h 37° C.; FIG. 13.

Data set [3] has as its target T2, H-2K^b molecules on RMA-S cells (Mus musculus, UniProt P01901).
T2 construct: endogenous in cells; host or cells: RMA-S mouse lymphoma cells
T2 sequence (P01901 22-369): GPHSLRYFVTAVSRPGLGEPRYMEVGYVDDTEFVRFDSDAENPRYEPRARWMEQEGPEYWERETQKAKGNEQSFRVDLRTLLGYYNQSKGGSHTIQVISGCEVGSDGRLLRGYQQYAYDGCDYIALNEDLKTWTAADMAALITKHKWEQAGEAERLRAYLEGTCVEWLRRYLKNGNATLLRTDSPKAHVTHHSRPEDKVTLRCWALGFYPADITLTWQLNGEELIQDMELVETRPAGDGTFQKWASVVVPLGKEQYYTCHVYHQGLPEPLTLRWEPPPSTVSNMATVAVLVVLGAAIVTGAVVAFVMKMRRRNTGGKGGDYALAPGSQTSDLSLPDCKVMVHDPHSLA
T2 sequence (P01887 21-119 partner): T1 sequence (P01887 21-119 partner)
Nature of the data set: MHC class I binding on RMA-S cells, H-2K^b. The format is cell-based. To be noted: peptide 10 μM.

The nature of data set [4]: E7 peptide association with the liposome. It is filed as physicochemical. To be noted: 0.7 mg lipids and 0.1 mg E7 per mL (molar ratio=11:1). As to the method:
All lipids were purchased from Avanti Polar Lipids (Alabaster Ala.). Small unilamellar DOTAP, DOEPC, and DOTMA liposomes were prepared by thin film hydration followed by extrusion. The lipid, with or without a drug, in chloroform was dried as a thin layer under a stream of nitrogen in a glass tube. The thin film was vacuum desiccated for 2-3 h and then re-hydrated in cell culture grade water (commercially available from Cambrex of Walkersville, Md.) or buffer containing E7 peptide to a final concentration of 0.7 mg lipids and 0.1 mg E7 per mL (molar ratio=11:1). The lipid dispersion was sequentially extruded through polycarbonate membranes with pore size of 0.4, 0.2 and 0.1 μm. The un-entrapped peptide was not removed. The liposomes were stored at 4° C. until use. E7 peptide association with the liposome was determined by measuring the percentage of liposome-bound peptide. In brief, unbound E7 peptide from DOTAP/E7 or DOTAP/E7/drug (MAP kinase inhibitor) complexes was separated by a Microcon® centrifugal filtrate devices (Millipore, Bedford, Mass.) and the concentration of unbound peptide was measured by Micro BC™ Protein Assay Kit (Pierce, Rockford, Ill. The efficiency of peptide association was determined as percent […] peptide. Approximately 30% of E7 peptide was associated with the liposomes.

As for “KSS-E7: E7 peptide RAHYNIVTF elongated with KSS (lysine-serine-serine) spacer, no lipid (not fully specified (N-terminus); also: KSS spacer added, end not given here)”, the “Anti-tumor activity compared with native E7” value in the data set with TC-1 tumor is on record as “superior anti-tumor activity”. The “Number of IFN-γ producing CD8+ cells vs native E7 in DOTAP liposomes” value with CD8+ T cells is listed as “superior result than the native E7”. The “Entrapment efficiency (%)” value in data set [1] stood at 26.4 ± 6.1%. For the same substance, the “Up-regulation of H-2D^b molecules (mean fluorescence) compared to the control” value in data set [2] was 8 fold. For the same substance, the “Up-regulation of H-2K^b molecules” value in data set [3] was “No up-regulation”.

In the case of RAHYNIVTF [Native E7], the “Entrapment efficiency (%)” value in data set [1] is 27.1 ± 5.8%; in data set [1] (listed as E7) it was “about 25%”. Further, the “Up-regulation of H-2D^b molecules (mean fluorescence) compared to the control” value in data set [2] was “four-fold”. Also, the “Up-regulation of H-2K^b molecules” value in data set [3] was “No up-regulation”. In addition, in data set [4], the “E7 peptide associated with the liposomes” value is given as “Approximately 30%”.
